Measured values from the domain aggregation screens of Martell et al. (2025).

Assay: soluble fraction after stress (log2 fold change); higher = more stays soluble; pooled small domains, quantitative proteomics
Conditions: stress: 75 degC
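Further: 20 min heating vs room temperature control held 20 min.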

| Sequence | soluble fraction (log2) |
| --- | --- |
| HMGPRVSAGPGRHRVQPGDTLDDIAARYRVSSRDLMLVNGLRNANHVEAGQTLKLPSNAVIA | 0.15 |
| HMGPSLIRIASNPVAEVFIDGTRVGTTPFEMPADGTLKTVRLTAKDHDDLVVPLRSMKSMEIMLTLRRI | -2.54 |
| HMGPTLTDEEEVVLNLLEKNHPVLLSELKENAGLSNKKWDKAIKGLSAHKLAKVTKTDDGLFVHLS | 0.615 |
| HMGPTPTSAQLTEAKRLRTKLDDLNPELAERLWSEHREPYTETQYQTLIEKLAAEVQSAEGEIGR | 0.222 |
| HMGPVRRDLEINGRMVPLTIREHARATRITLRIEPGGQALRLTIPPGLPTREVDSFLTRHHGWLMTKLAHI | -2.47 |
| HMGPWTETAAKGDAVSKRMLITWLQENADAEFLAAQKLTGQATSVAKRVTKDQLVELYLSVTTAA | -1.42 |
| HMGQAAHYEGVKGDGESDTDVISRVLTAAGAEAQKDDIFVVKELIAGGKYSYTAYVYDGSVWAAM | -0.529 |
| HMGQAEEVRYSTFLDEVRNGRIEQVVLQGEHIIGTRKDKTVFSVFNPETDYTALIGTLSKSGVTIEGRP | 0.283 |
| HMGQARQSAIRELGNDPTSGKKITVRSGRYGPYVTDGEVNASLRKGDDPQTIDLDRAIELLAARREKLG | -0.148 |
| HMGQDGFIGLEAAKKLVLQKLGLTSAEFIKAELDAEDRKYELELIVDGIEYDFDIDAYSGAFLKQEQETV | -0.519 |
| HMGQEEKDIFLKLINISGIGPKLALNILSGIEASELEEAVRNTNVTRLSMVPGIGQKTALRIIMELSDKLE | -0.298 |
| HMGQELTMPDLKSMSRSNAEEKLKKMGLKLGAVFEENAKEPAGTVINQDPRSGSKITKGQTVDITVSLGEK | 0.265 |
| HMGQERAVPDVKGQSFDMAQGNISRAGLKAVVTDSVYDSYARPGTVVEQSPIPLAKIKRGGTVYLTLVA | -0.118 |
| HMGQGSAFVYYEVLPKQTEYSLTRKLGLGYADLLSLNPQLARGLQAGMVLKIPRDKAGNLEVKNDLILE | -0.643 |
| HMGQISLSVNAIPEKAEVILDGNSIGNTPIRKNTITPGSHMFEIEKKGYAPISYDIYVNPSKAINLDFFM | -0.974 |
| HMGQKDYKTRLQEYFAKQGLKVNYEDTSHGPDHNKNFSTDVFLDGKIIGSGIGKSKKSSQQSAAKDALNIL | 0.473 |
| HMGQLIGKEEAKQIALSRAGVAEGDISRYESELDTDDGKTKYEISFHVGRVEYDIEINAVTGAVEKFEMDN | 0.587 |
| HMGQTDTIIKTTTDLYYEMSTMSDDDKLVVAQTLRDVWMAVGRWSGKLSKKQREKVAEVKRVLGE | -0.866 |
| HMGQVAKPPLKELGADPVTGKPMVLKDGRFGPYVTDGEYNASLRKDDDIETIGVERAAELLQIRREKGP | -0.252 |
| HMGQVGIPFSDFLAEVENGQVREVVIKGNDISGTFNDNRGFSTYAPNDPNLVEKLTKRGVVINAQPTE | 0.077 |
| HMGQVSEAGELEVAADRVIAANPEAVTKYKSGNENILQFLVGQMMKETKGAANPQVAAEILRKKIV | 0.065 |
| HMGRELDLNQRVYDFIHDIADEVRTDEGTFSANQMMERFLFPGDLQSVPIGRLSGGERRRLYLLSVLMVKI | -0.0184 |
| HMGRFPSLTPVVIDALTAQYREHPGWTVQLHVDNLRVVLAANQTPLPSYPTIRRYLLAQGMRRQTRP | -0.396 |
| HMGRLNMRRIRDVLRLKFGQGLSERQVAASLGLSKTSVGTYLHRARQAGLTWPLPQGLDDDGLELLLFP | -1.69 |
| HMGRMTRKDRALATDLYGRIVGNVDDFHEGRIDYETFSERQRGLWTTLDAAGPEVKRAVLADIRERL | -0.563 |
| HMGRWQPSTSAKQHGESALLLERLLHLERLTVSEAFHVLTINHRLNLSLPEYRSLLAVVQLPK | -1.8 |

| Sequence | soluble fraction (log2) |
| --- | --- |
| HMGRYDWIEQIDDPVLAERLKHLTEDDLELLTRYVFEDATQKELASQYGIGQQSVSKRLKKLKSFLTK | -0.355 |
| HMGSATAPDLKGLTYEQAQTKAEDAGYNIEKGEDVYDNDVEKGKVASQDPEAGAEAKEGSVITVNISK | -0.0215 |
| HMGSFAADVGRMVRLGRAKRGISRRKLAADSGISERYLAQIEGGQGNPSVNVLKAIADAISVPVFELLPH | -1.74 |
| HMGSFDDAPDQLRQSILQLLAEGPLPPSAITERLNISREDATEALQQLLDEQRIFAVNGMLQLQPG | -0.109 |
| HMGSFTDKQIKQAFGVLNDPRFKQGNYDGAVAVINKIAPGLADHPSVANALKRANEATQDIAQQTQA | 0.0868 |
| HMGSGQIRYITENTVRVVYGTSKENEFVFQDGKPYPKDTPYHIHYTRNLEEYFMSGVEHDKNSKIILKVD | -0.946 |
| HMGSGVNVTVNGKRMNLPLKDDHIIFVDIFNYIDFDLSKPKGSIVLKLNGRDAGYTDPIKDGDVIDIYWQ | -0.301 |
| HMGSIDYLVGSRLRQYRRLRGYSLIEFSAMLHRSKSAISKYERGEVSIDLRTLNEMARLLDIPLSGLLL | -4.56 |
| HMGSIEASFEEDVRRYLARKSMTTTEISKKMRQKRPDMSRDQLMTLLANAIKRIKPIKKKIKGTLYLSLE | -2.07 |
| HMGSIMIIVLKENAPQQAAEKLMKEIRAKGLQIDVSKGTRKTVLGLVGDTSVIDMEHVQGYDYVDKVLRV | -1.11 |
| HMGSKDLPFSTFMSEIDKGNITSVDIRGNEIQGTFANGTKFRTYSPNYPNLVEKLNGKGVSITAGPV | 0.409 |
| HMGSKKITIYVSGEVKNPGIVTLNSDQRLASAVEKLGGVTENADMNNINLAMKLEDEMHYIIPKKGEK | -0.0389 |
| HMGSKQVSVPDVRNLDYERASQQLREAGFVVGDVLRIRDDRAPAGTVIAQSPAAPALVPENARVSLLVSSG | 0.124 |
| HMGSLAVVPSLTGKTLQEAQSKAADYGLALEIEGYVASTAVDYGRIVSQSPDAGFSVKSGSSVKVSVSAG | -0.0619 |
| HMGSLGRAIRSRREKMKVGLEELAAKTGLSESHISDIEEGRGFAPVGDILKIARALTIDPGELLK | 0.49 |
| HMGSLGSLLKSVRNQRGLSRQQMAQSLNIGVRAIEQIEEGERKPDLELLNRYARGLMDPSVT | -0.166 |
| HMGSLKEKIVLLEKLYQQNPSEEIKLLLINTYQLNHQYIQARKLFFTLTPEQKEKLPLASEFLIFL | -1.04 |
| HMGSLNDQVMKYIDALPSAFNKRELDFLIERGVKEFALNGEYLEKAIINEYKLTADTYHRER | 0.0903 |
| HMGSLQPLLLAAIDALQTHIRSGLPFRVEERLAELDQFRTELQNGSVPPQRGVNRLWAFYEDEFRL | -1.06 |
| HMGSLRSALDGIPGIGEQYQKRLLAQFGSVKAMRSASVEDFEAVRGIGRAKAQALYDALHAG | -0.221 |
| HMGSLVVVPNLVGQNYDEVKLSTKYSDFEIVQKNTEYSEAPAGQIIKQDPEAGTKVKKHSTINVTVSK | -0.167 |
| HMGSQELIQLGERIRQKRKDSHLTQETFAEKAGISVNTVSRIEGGQAAMSIEIFAKLVEILDADANELLG | -1.39 |
| HMGSRAEAKEFLQTMLADGRQLATDMEEARQAHDIADRTLRRARKELNVQVYRDGNAWYWELPTPIK | -0.585 |
| HMGSREVPFSDFISKVESGSVLEVVLRGRQVEGLTDANERFQTQIPNYPALFEILERNQVRTRVEPT | -0.0642 |
| HMGSTATVIASRLNMRASASTTGALLTKIPNGATVTVLGTTGAWSHIRYGSYTGYVMSQYLRING | -3.1 |
| HMGSTVRIVVPAADIPAYKDIQPSDLEYREVPKDEISEDAVTDPQEVINKYSTSPLYAGWPINKNIIET | -0.0405 |

| Sequence | soluble fraction (log2) |
| --- | --- |
| HMGSYANAWQLAEHAAKDMLGEVIYLLDGKEVHAGILETMSAESIKTASAENVDGKVVIRLVSK | -0.15 |
| HMGSYIGEAKAKEIALSHAGVSASQATFVRSQFEYDDGRAVYDVDFWSGNKEYDYEIDAKSGTIVSYDFD | -0.736 |
| HMGSYVVQLGAFAIRANAEKLAREVDGSIATSGRFSLVRVGPFTSRGQAEQALAKLRARGYSDALIHSL | -2.39 |
| HMGTDFRPVFQYVDELVRAGEFTNLKGMIYFTDGRGIFPEKKPDYDAAFVFLDDGYDPPDVPVWAIKLVL | -0.0422 |
| HMGTGSSAERITMLNSILERQIQAMEIQGNPDAPIVNIQKIYTTLQRIVETAGLKDVDQFFMNPLQGQKEM | -0.134 |
| HMGTIRAPMPGTILKINVVDGDSVTKGDVLLILESMKMENSITSPKTGSVTSVYVSEGDPVQHGETLIDL | -0.196 |
| HMGTISKRINPSGTTVYRAVIRIRKNGYPNFTESRTFSKKSMAAEWVKRREAEIELNPDILFG | -2.57 |
| HMGTLSLLVQKLMAVGLEGAKASEIVERFDRERIERQINALPSRKIKSSRTGFLIRAIELDIPVE | -2.58 |
| HMGTPKMPLSLYLSMVENLRSLKRFALVNQQVKDGFVFFNDVAGIKRLQELLNYHNTGEKPSE | -2 |
| HMGTRIQAVMEDIQSRIAARTYLPGTRLPSVRAQAQAMQVSVSTVVEAYERLAAEGVIASRPGSGFYVAGP | -3.05 |
| HMGTRPAYAADAPNPQKRFIYHRIVDQLRNKATGAPISYRAIAAETGVSVQTVINIKNRMNQMLSEK | -1.27 |
| HMGTRPIQIASFSKEENAKRAVEALAKIGITAQPQKSGSATKAVWGVVANGDADLLAKIKAAGFADAYFL | 0.0154 |
| HMGTRTILGIDPGSRKTGFGIIRLDGSRTHYVSSGVIRIPDTALPERLKIIFASLNEIIQQFQPQEV | -0.339 |
| HMGTRYVEFVIPGTGNHEVRIVSSNGSRQNVEVAGTYPGGARLRTKVDNGVRRVSFYVDNRLVEEKQ | -0.26 |
| HMGTSFKITFYKDAFQVDDGPIRMLNDPANQKFVDEVSQGYAPKELIGQGGKAPEIDIIDKRSENAPT | 0.156 |
| HMGTVFTDIMTDIASGKFPNVFPDSLEAQIQKNVTMAPDKLSATLQYGDKSVILPTTKGKEAAEAAVKAA | 0.000803 |
| HMGTYTSALDGIKGLGKKRKMLLLNTYKSIDVLKSVPLTELSQLIPREVAEALLTKLNRVDD | -1.18 |
| HMGVDASVDSKLDLLSQVLDSDQVKEQLPEAVLEQLAQNLDRWRSLHEESELQDDDIAELNRLLGLFGLG | 0.111 |
| HMGVEKHLRITGTSTVSWKDAIVQAVAEASKTIDYLSNVKIIEQRARIDGKKLVEYFVDLDLSFVID | -0.23 |
| HMGVGITAPLAGNIFKIVVQPGDVVASGDVVLVLEAMKMETEIRAASGGTVSQVLVREGDAVDAGHTLITL | -2.85 |
| HMGVGVTAPLAGNIFKIVKQPGDVVASGDVVLILEAMKMETEIRAAAGGTVKQVLVREGDAVDAGHTLMTL | -1.38 |
| HMGVHSVVPDIKNKHYGEAKAILAANGLSIEISDSIYDRSVAPGTVVESWPKAGAIVKGDRAVFVTLTAF | -1.61 |
| HMGVMTGAEFVGNTVASVERNLIIDTLKHTMGNRTTAANILGISIRTLRNKLKQYQNEGFDIPE | -1.11 |
| HMGVPELHKGEIVQAVVEKVLGEGLLRVNLKGMTVEAATSLRLNPGQQLLLRSEGIENGRQVLR | 0.275 |
